Values quoted from earlier work in publication PMC4986992.
pKd: −log10 of the molar value.

Molecular target: Glycophorin A (GpATM) TM (Homo sapiens) (UniProt P02724)

Glycophorin A (GpATM) TM (from UniProt P02724)
pKd: 11.92
